Here are results for one molecule from publication PMC11360484 (Toxins, 2024).

The test addresses T1, recombinant ecarin (rEcarin), SVMP PIII prothrombin activator from Echis pyramidum leakeyi (Echis pyramidum leakeyi (Kenya; entry …).
T1 construct: also called His10-tagged recombinant ecarin
As to the kind of experiment: BLI; Octet HTX; […]; 30 C; PBS with 0.1% TWEEN 20 and 0.1% BSA; 180 s association, 180 s dissociation; 1:1 model, […]. Particulars: both partners purified. (In general: In BLI a coated tip is dipped into the sample, and binding shifts an interference pattern.)

T1 sequence (heavy, as listed by the source): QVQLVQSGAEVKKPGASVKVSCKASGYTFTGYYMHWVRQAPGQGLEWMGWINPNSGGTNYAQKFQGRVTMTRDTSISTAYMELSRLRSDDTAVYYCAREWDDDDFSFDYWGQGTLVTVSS

B1: H11 IgG1 (synthetic human antibody against rEcarin) (antibody, V domains shown)
VH: not shown
VL: QSALTQPASVSGSPGQSITISCTGTSSDVGGYNYVSWYQQHPGKAPKLMIYEVSNRPSGVSNRFSGSKSGNTASLTISGLQAEDEADYYCSSYTSSSTLVVFGGGTKLTVL
notes: copies: 2 + 2
In general, Kd refers to a measure of binding affinity in units of concentration. Consider B1, for which the dissociation constant Kd is 87 ± 8 nM.
